Reference: patent publication US20180030144A1 (INNATE PHARMA, published 2018)

T1: human CD73 expressed at the cell surface (human, UniProt P21589 27-549)
T1 construct: GPI-anchored dimer on cells; also called huCD73; cellular CD73
T1 sequence: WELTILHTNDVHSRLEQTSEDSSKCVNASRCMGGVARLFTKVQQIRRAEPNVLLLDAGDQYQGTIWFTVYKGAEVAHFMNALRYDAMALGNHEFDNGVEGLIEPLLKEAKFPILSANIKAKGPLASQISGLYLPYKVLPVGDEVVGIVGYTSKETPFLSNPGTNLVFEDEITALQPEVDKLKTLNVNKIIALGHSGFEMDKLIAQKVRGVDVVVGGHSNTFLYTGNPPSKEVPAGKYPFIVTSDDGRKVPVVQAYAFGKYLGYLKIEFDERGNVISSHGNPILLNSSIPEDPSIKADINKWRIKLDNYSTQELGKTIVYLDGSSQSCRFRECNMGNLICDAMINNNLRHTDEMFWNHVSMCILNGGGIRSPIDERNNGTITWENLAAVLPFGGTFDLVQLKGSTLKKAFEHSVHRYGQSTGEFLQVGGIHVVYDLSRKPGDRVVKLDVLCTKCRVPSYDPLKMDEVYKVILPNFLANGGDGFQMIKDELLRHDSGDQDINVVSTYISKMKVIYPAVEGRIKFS

T2: recombinant human CD73-His extracellular domain protein (soluble dimer) (human, UniProt P21589 27-547)
T2 construct: Purified as a dimer; also called huCD73; soluble recombinant human CD73
T2 sequence: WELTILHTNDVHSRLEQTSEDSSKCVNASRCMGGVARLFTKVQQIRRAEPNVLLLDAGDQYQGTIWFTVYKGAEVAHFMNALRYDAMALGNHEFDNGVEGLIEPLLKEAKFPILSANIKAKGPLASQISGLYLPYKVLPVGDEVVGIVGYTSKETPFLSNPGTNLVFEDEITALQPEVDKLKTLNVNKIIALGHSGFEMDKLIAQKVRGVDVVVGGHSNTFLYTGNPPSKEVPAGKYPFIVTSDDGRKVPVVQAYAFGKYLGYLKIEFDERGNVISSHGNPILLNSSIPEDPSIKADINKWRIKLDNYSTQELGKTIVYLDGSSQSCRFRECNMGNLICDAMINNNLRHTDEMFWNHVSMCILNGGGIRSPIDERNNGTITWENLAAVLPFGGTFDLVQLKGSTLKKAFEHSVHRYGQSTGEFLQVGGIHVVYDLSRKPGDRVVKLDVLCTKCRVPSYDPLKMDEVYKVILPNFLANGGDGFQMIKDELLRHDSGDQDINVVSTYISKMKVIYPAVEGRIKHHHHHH


Columns and labels:
[1] = biological target: T1, human CD73 expressed at the cell surface; test: flow cytometry on MDA-MB-231 cells, medium (no APCP)
Procedure: (§1) MDA-MB-231 cells are available from ATCC (reference HTB-26). 10⁵ cells resuspended in PBS/0.2% BSA/0.02% NaN3 (named “staining buffer”) are distributed into round bottom 96W-microplates. Dose-range of anti-CD73 antibodies was added to the plates and cells are incubated for 45 min at 4° C. Cells were washed three times in staining buffer by spinning plates at 400 g for 3 min at 4° C. PE-coupled goat anti-mouse or goat anti-human IgG Fc fragment secondary antibodies (Beckman Coulter) diluted in staining buffer were added to the cells and plates are incubated for 30 additional minutes at 4° C. Cells were washed three times as described above and analyzed on an Accury C6 flow cytometer equipped with an HTFC plate reader.
(§2) Cells were pre-incubated at 37° C. for 30 minutes in the presence or not of 200 μM adenosine 5′-(α,β-methylene)diphosphate (APCP), followed by addition of antibodies. APCP is an analog of ADP and binds irreversibly to the active site of CD73. When bound by APCP, CD73 changes conformation from an “open” conformation to a “closed” conformation. mAbs 11E1, 8C7, 3C12 and 6E1 bound MDA-MB-231 cells with good affinity both in the presence and absence of APCP. In the presence of APCP, the EC50 was similar to that observed in the absence of APCP. The plateau for maximal binding of 11E1, 8C7, 3C12 and 6E1 was higher in the absence of APCP than in the presence of APCP, while the inverse was true for AD2.

[2] = biological target: T1, human CD73 expressed at the cell surface; test: cell-based or functional assay
[3] = biological target: T2, recombinant human CD73-His …; test: ELISA, plate-coated recombinant human CD73
Procedure: 5 μg/ml of recombinant human CD73 protein (IPH, isoform E6) was coated on MaxiSorp ELISA plates (Nunc) in PBS, overnight at 4° C. Plates were washed 5 times in washing buffer (PBS, 0.05% Tween20) and unspecific sites were saturated by adding 200 μl/w TBS starting block buffer (Thermo Ficher). Dose-range of anti-CD73 antibodies were incubated for 2 h at 37° C. Plates were washed 5 times in washing buffer and HRP-coupled goat anti-human or goat anti-mouse IgG Fc fragment secondary antibody (Bethyl, 1/50000) was added for 1 hr at RT to detect bound anti-CD73 antibodies. […] The enzymatic reaction was stopped by adding HCl 1M and O.D. was measured at 450 nm. Optical density vs. anti-CD73 Ab concentration was plotted on graphs and EC50 is calculated using GraphPad Prism software.

[4] = biological target: T1, human CD73 expressed at the cell surface; test: flow cytometry on MDA-MB-231 cells pre-incubated with 200 µM APCP
Procedure: as §1, §2

[5] = biological target: T2, recombinant human CD73-His …; test: SPR (Biacore T100), antibody captured on Protein-A, soluble dimeric CD73 injected 1.23-300 nM, 1:1 model, bivalent affinity
Procedure: SPR measurements were performed on a Biacore T100 apparatus (Biacore GE Healthcare) at 25° C. In all Biacore experiments HBS-EP+(Biacore GE Healthcare) and NaOH 10 mM served as running buffer and regeneration buffer respectively. Sensorgrams were analyzed with Biacore T100 Evaluation software. Protein-A was purchase from (GE Healthcare). Human soluble dimeric CD73 proteins were cloned, produced and purified at Innate Pharma.
Protein-A proteins were immobilized covalently to carboxyl groups in the dextran layer on a Sensor Chip CMS. The chip surface was activated with EDC/NHS (N-ethyl-N′-(3-dimethylaminopropyl) carbodiimide hydrochloride and N-hydroxysuccinimide (Biacore GE Healthcare). Protein-A was diluted to 10 μg/ml in coupling buffer (10 mM acetate, pH 5.6) and injected until the appropriate immobilization level was reached (i.e. 2000 RU). Deactivation of the remaining activated groups was performed using 100 mM ethanolamine pH 8 (Biacore GE Healthcare).
Affinity study was carried out according to a standard Capture-Kinetic protocol recommended by the manufacturer (Biacore GE Healthcare kinetic wizard). Serial dilutions of human recombinant soluble dimeric CD73 proteins, ranging from 1.23 to 300 nM were sequentially injected over the captured anti-CD73 antibodies and allowed to dissociate for 10 min before regeneration. The entire sensorgram sets were fitted using the 1:1 kinetic binding model. Bivalent affinities and kinetic association and dissociation rate constants are shown below in Table 2 below.

Row | EC50 [1] [µg/mL] | EC50 for neutralization of the enzymatic activity of cellular CD73 (MDA-MB-231 cells, free phosphate from AMP) [2] [µg/mL] | EC50 [3] [µg/mL] | EC50 [4] [µg/mL] | Kd [5] [nM] | Binder
1 | 0.0611 | 0.195 | 0.012 | 0.0375 | 0.822 | antibody 11E1 (antibody, human IgG1, V domains shown, Produced as chimeric human IgG1 with heavy chain N297Q (Kabat EU numbering); also called 1E11) VH: EIQLQQSGPELVKPGASVKVSCKASGYAFTSYNMYWVKQSHGKSLEWIGYIDPYNGGTSYNQKFKGKATLTVDKSSSTAYMHLNSLTSEDSAVYYCARGYGNYKAWFAYWGQGTLVTVSA VL: DAVMTQTPKFLLVSAGDRVTITCKASQSVTNDVAWYQQKPGQSPKLLIYYASNRYTGVPDRFTGSGYGTDFTFTISTVQAEDLAVYFCQQDYSSLTFGAGTKLELK
2 | 0.0584 | 0.209 | 0.014 | 0.0395 | 0.819 | antibody 6E1 (antibody, human IgG1, V domains shown, Produced as chimeric human IgG1 with heavy chain N297Q (Kabat EU numbering)) VH: EFQLQQSGPELVKPGASVKVSCKASGYAFTSYNMYWVKQSHGKRLEWIGYIDPYNGGSSYNQKFKGKATLTVDKSSSTAYMHLNNLTSEDSAVYYCARGYNNYKAWFAYWGQGTLVTVSA VL: SIVMTQTPKFLLVSAGDRVTITCKASQSVTNDVAWYQQKPGQSPKLLIYYASNRYTGVPDRFTGSGYGTDFTFTISTMQAEDLAVYFCQQDYSSLTFGAGTKLELK
3 | 0.0572 | 0.21 | 0.014 | 0.0431 | 0.682 | antibody 3C12 (antibody, human IgG1, V domains shown, Produced as chimeric human IgG1 with heavy chain N297Q (Kabat EU numbering); RTVAAP)) VH: QIQLQQSGPELVKPGASVKVSCKASGYAFASYNMNWVKQSHGKSLDWIGYIDPYNGGSSYNLTFKGKATLTVDKSSTTAYMHLNSLTSEDSAVYYCARGYGNYKAWFAYWGQGTLVTVSA VL: DVVMTQTPKFLLVSAGDRVTITCKASQSVSNDVAWYQQKPGQSPKLLIYYASTRYTGVPDRFTGSGYGTDFTFTISTVQAEDLAVYFCQQDYSSLTFGAGTKLELKR
